Molecular target: CD3 on T cells (Jurkat T cells; PBMC-T cells)
Assay: flow cytometry on Jurkat T cells; protein purified on CH1 resin

Chain of CD3 on T cells (Jurkat T cells; PBMC-T cells) (P07766 23-207): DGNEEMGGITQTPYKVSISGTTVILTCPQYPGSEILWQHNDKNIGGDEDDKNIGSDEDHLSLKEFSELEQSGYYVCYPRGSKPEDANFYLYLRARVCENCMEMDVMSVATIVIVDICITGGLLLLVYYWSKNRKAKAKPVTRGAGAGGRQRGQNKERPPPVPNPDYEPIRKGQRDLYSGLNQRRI

B1: IgFD-36(anti-CD3) (antibody, human IgG1, kappa, V domains shown)
VH: EVQLVESGGGLVQPGGSLRLSCAASGFTFNTYAMNWVRQAPGKGLEWVARIRSKYNNYATYYADSVKDRFTISRDDSKNTLYLQMNSLRAEDTAVYYCVRHGNFGNSYVSWFAYWGQGTLVTVSS
VL: QAVVTQEPSLTVSPGGTVTLTCRSSTGAVTTSNYANWVQQKPDHLFRGLIGGTNKRAPGTPARFSGSLLGDKAALTISGAQPEDEAEYYCALWYSNLWVFGGGTKLTVLK
- Kd: 6.12 nM

Reference: patent publication US20220089722A1
